Experiment [1] has as its target T1, AH receptor nuclear translocator (ARNT), full length (human, UniProt P27540 1-789).
T1 construct: Full length: in vitro translated, expressed in yeast (PL574) or transfected; Endogenous ARNT in the Hep3B experiment; also called huARNT; hARNT
In words: yeast two-hybrid with full-length ARNT, lacZ reporter. From the text: (§1) This plasmid was designated PL371, and subsequently was digested with NotI and XhoI, this fragment cloned into the corresponding sites of pSGBCU11. This clone was designated PL574. The LexAMOP fusion protein constructs were cotransformed with a yeast expression vector containing the full length AHR or ARNT into L40, a yeast strain containing integrated lacZ and HIS3 reporter genes. As controls, LexAAHR and LexAARNT were cotransformed with AHR and ARNT. The strength of interaction was visually characterized by X-Gal (5-bromo-4-chloro-3-indolyl-(-D-galactoside) plate assays, performed after three days growth on selective media (Bohen et al, Proc. Natl. Acad. Sci. USA 90: 11424–11428, 1993). To provide quantitation of the interaction strength, multiple colonies from yeast harboring each bHLH-PAS combination colonies were grown overnight in liquid media. Liquid cultures were grown for 5 hours, and assayed for lacZ activity using the Galacto-Light chemiluminescence reporter system (Tropix, Bedford, Mass.). To determine the effect of AHR agonists on these interactions, yeast were also grown on plates or in liquid culture with and without 1 μM βNF (Carver et al., J. Biol. Chem. 269: 30109–30112, 1994).
(§2) 2. Interaction of MOPs with the AHR and ARNT in vivo; Yeast two-hybrid experiments. […]

In experiment [2] the target is T2, human aryl hydrocarbon receptor (AHR), full length (human, UniProt P35869 1-848).
T2 construct: Full length in yeast (PRSAHR) and in the Hsp90 co-IP (huAHR); also called huAHR; Ah receptor
T2 sequence (looked up): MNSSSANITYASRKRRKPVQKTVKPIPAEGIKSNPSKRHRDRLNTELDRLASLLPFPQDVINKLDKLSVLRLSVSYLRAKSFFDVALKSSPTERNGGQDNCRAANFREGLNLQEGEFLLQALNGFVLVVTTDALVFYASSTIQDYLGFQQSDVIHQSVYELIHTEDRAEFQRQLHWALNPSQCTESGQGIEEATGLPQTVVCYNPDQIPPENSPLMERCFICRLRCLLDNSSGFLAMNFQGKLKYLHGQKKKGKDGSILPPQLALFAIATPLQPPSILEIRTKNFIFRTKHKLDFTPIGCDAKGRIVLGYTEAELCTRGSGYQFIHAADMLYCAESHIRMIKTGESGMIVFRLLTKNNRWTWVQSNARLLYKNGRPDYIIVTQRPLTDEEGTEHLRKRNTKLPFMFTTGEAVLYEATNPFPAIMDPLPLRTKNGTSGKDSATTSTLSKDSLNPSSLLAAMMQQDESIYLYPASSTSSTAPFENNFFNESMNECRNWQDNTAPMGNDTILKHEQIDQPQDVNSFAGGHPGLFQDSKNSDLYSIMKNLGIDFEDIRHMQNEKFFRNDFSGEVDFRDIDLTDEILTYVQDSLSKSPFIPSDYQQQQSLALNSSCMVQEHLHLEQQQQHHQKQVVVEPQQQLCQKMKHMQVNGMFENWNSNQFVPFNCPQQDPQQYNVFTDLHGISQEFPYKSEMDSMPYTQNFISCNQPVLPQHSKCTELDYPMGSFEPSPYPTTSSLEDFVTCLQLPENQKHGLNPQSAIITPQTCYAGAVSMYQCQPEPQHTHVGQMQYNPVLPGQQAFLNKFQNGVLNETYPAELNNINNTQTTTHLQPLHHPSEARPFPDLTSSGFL
As to the kind of experiment: yeast two-hybrid, lacZ reporter, with and without 1 µM βNF.
From the text: as §1, §2

T1 sequence (P27540 whole entry): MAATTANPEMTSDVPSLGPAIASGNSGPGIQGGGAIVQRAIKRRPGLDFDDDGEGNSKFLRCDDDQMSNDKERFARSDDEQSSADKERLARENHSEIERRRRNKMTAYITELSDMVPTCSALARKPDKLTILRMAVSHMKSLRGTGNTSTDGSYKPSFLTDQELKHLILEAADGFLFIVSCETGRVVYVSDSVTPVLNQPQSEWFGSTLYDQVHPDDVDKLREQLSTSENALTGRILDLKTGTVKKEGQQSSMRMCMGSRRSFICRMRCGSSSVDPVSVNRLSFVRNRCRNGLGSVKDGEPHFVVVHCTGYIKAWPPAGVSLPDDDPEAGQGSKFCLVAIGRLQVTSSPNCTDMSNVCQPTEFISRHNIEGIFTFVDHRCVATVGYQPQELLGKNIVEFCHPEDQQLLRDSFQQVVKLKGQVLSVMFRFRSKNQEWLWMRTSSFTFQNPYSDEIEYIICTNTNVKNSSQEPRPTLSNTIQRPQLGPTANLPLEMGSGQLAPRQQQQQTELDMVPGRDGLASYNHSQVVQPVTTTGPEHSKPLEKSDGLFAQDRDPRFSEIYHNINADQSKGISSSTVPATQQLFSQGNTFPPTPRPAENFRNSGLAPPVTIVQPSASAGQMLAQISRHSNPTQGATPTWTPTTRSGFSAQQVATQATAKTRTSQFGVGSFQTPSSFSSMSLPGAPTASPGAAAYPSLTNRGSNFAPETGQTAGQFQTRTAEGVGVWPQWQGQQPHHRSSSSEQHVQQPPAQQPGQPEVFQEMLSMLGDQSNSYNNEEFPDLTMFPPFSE

B1: LexAMOP4 (other)
chain: MKALTARQQEVFDLIRDHISQTGMPPTRAEIAQRLGFRSPNAAEEHLKALARKGVIEIVSGASRGIRLLQEEEEGLPLVGRVAAGEPLLAQQHIEGHYQVDPSLFKPNADFLLRVSGMSMKDIGIMDGDLLAVHKTQDVRNGQVVVARIDDEVTVKRLKKQGNKVELLPENSEFKPIVVDLRQQSFTIEGLAVGVIRNGDWLMDEDEKDRAKRASRNKSEKKRRDQFNVLIKELSSMLPGNTRKMDKTTVLEEVIGFLQKHNEVSAQTEICDIQQDWKPSFLSNEEFTQLMLEALDGFIIAVTTDGSIIYVSDSITPLLGHLPSDVMDQNLLNFLPEQEHSEVYKILSSHMLVTDSPSPEYLKSDGDLEFYCHLLRGSLNPKEFPTYEYIKFVGNFRSYNNVPSPSCNGFDNTLSRPCRVPLGKEVCFIATVRLATPQFLKEMCIVDEPLEEFTSRHSLEWKFLFLDHRAPPIIGYLPFEVLGTSGYDYYHIDDLELLARCHQHLMQFGKGKSCCYRFLTKGQQWIWLQTHYYITYHQWNSKPEFIVCTHSVVSYADVRVERRQELA
notes: range 1-202; also called LexAbHLH-PAS fusion of MOP4; MOP4 bait plasmid
Regarding B1, the binding result in experiment [1] and in experiment [2] was “no binding” each time.

For the origin of these results see patent publication US7105647 (WISCONSIN ALUMNI RESEARCH FOUNDATION, dated 2006).
